# In publication PMC7736791 (Nucleic Acids Research, 2020):
# “And” between values parts separate entries of the source, which are not always exact repeats. Identical values can stand only once. Like-named read-outs stand apart in the source and are kept apart here.
# Legend:
# [1] = target: AAV2 Rep68* (Rep68 C151S) (adeno-associated virus 2 (AAV2)) (UniProt P03132); experiment: cryo-EM structure
# [2] = target: AAV2 Rep68* (Rep68 C151S) (adeno-associated virus 2 (AAV2)) (UniProt P03132); experiment: cryo-EM structure; remark: listed apart in the source
# [3] = target: AAV2 Rep68* (Rep68 C151S) (adeno-associated virus 2 (AAV2)) (UniProt P03132); experiment: cryo-EM structure; remark: listed apart in the source
# [4] = target: AAV2 Rep68* (Rep68 C151S) (adeno-associated virus 2 (AAV2)) (UniProt P03132); experiment: cryo-EM structure; remark: listed apart in the source
# [5] = target: AAV2 Rep68* (Rep68 C151S) (adeno-associated virus 2 (AAV2)) (UniProt P03132); experiment: cryo-EM structure; remark: listed apart in the source
# cross-linking = target: the molecule itself; experiment: cross-linking
Molecule,stoichiometry N [1],stoichiometry N [2],stoichiometry N [3],stoichiometry N [4],stoichiometry N [5],stoichiometry N (cross-linking)
AAV2 Rep68* (Rep68 C151S) (from UniProt P03132 1-536) (enzyme),7,6,6 and 7,7,8,
"AAV2 Rep68 origin binding domain (OBD) (domain or fragment, adeno-associated virus 2 (AAV2)) MPGFYEIVIKVPSDLDGHLPGISDSFVNWVAEKEWELPPDSDMDLNLIEQAPLTVAEKLQRDFLTEWRRVSKAPEALFFVQFEKGESYFHMHVLVETTGVKSMVLGRFLSQIREKLIQRIYRGIEPTLPNWFAVTKTRNGAGGGNKVVDECYIPNYLLPKTQPELQWAWTNMEQYLSACLNLTERKRLVAQHLTHVSQTQEQNKENQNPN",,,,,,8
